Assay results reported in the supplement of paper PMC12783771.
± gives the standard deviation of the averaged measurements.

B1: library; numbered along this chain (parent)
chain: MNIQIGELAKRTACPVVTIRFYEQEGLLPPPGRSRGNFRLYGEEHVERLQFIRHCRSLDMPLSDVRTLLSYRKRPDQDCGEVNMLLDEHIRQVESRIGALLELKHHLVELREACSGARPAQSCGILQGLSDCVCDTRGTTAHPSD

Tests used:
[1] = variants of: B1; experiment: sfGFP reporter fluorescence (15 h) (µM FITC); higher = higher leak; settings: library round: Round 0; ligand: none
How it was run: (§1)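 Values are endpoint sfGFP fluorescence given as µM FITC equivalents. Fluorescence was read at 485/528 nm on a Synergy Neo2, and FITC standard curves were prepared in 50 mM sodium borate pH 8.5. Reactions of 1 μL combined BL21 Star (DE3) PANOx-SP extract, pPbrR-sfGFP reporter, 30 μg/mL GamS and linear PbrR templates (PCR-made, Echo-normalized to 5 nM), with 1 µM lead chloride, 30 µM zinc acetate or no metal, for 15 hr at 30 °C.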

[2] = variants of: B1; experiment: sfGFP reporter fluorescence (15 h) (µM FITC); higher = stronger transcriptional activation; settings: library round: Round 0
How it was run: as §1

| Variant | sfGFP reporter fluorescence [1] | sfGFP reporter fluorescence ([2]; ligand: 1 µM Pb) | sfGFP reporter fluorescence ([2]; ligand: 30 µM Zn) |
| --- | --- | --- | --- |
| MNIQIGELAKRTACPVVTIRFYEQEGLLPPPGRSRGNFRLYGEEHVERLQFIRHCRSLDMPLSDVRTLLSYRKRPDQDCGEVNMLLDEHIRQVESRIGALLELTHHLVELREACSGARPAQSCGILQGLSDCVCDTRGTTAHPSD | 0.0619 ± 0.0021 | 0.0925 ± 0.015 | 0.865 ± 0.13 |
| MNIQIGELAKRTACPVVTIRFYEQEGLLPPPGRSRGNFRLYGEEHVERLQFIRHCRSLDMPLSDVRTLLSYRKRPDQDCGEVNMLLDEHIRQVESRIGALLELHHHLVELREACSGARPAQSCGILQGLSDCVCDTRGTTAHPSD | 0.0762 ± 0.0036 | 0.189 ± 0.081 | 1.56 ± 0.38 |
| MNIQIGELAKRTACPVVTIRFYEQEGLLPPPGRSRGNFRLYGEEHVERLQFIRHCRSLDMPLSDVRTLLSYRKRPDQDCGEVNMLLDEHIRQVESRIGALLELQHHLVELREACSGARPAQSCGILQGLSDCVCDTRGTTAHPSD | 0.0601 ± 0.0026 | 0.0832 ± 0.015 | 0.901 ± 0.022 |
| MNIQIGELAKRTACPVVTIRFYEQEGLLPPPGRSRGNFRLYGEEHVERLQFIRHCRSLDMPLSDVRTLLSYRKRPDQDCGEVNMLLDEHIRQVESRIGALLELNHHLVELREACSGARPAQSCGILQGLSDCVCDTRGTTAHPSD | 0.0557 ± 0.0073 | 0.0823 ± 0.025 | 0.879 ± 0.15 |
| MNIQIGELAKRTACPVVTIRFYEQEGLLPPPGRSRGNFRLYGEEHVERLQFIRHCRSLDMPLSDVRTLLSYRKRPDQDCGEVNMLLDEHIRQVESRIGALLELPHHLVELREACSGARPAQSCGILQGLSDCVCDTRGTTAHPSD | 0.0509 ± 0.0073 | 0.0544 ± 0.0054 | 0.08191 ± 0.00078 |
| MNIQIGELAKRTACPVVTIRFYEQEGLLPPPGRSRGNFRLYGEEHVERLQFIRHCRSLDMPLSDVRTLLSYRKRPDQDCGEVNMLLDEHIRQVESRIGALLELMHHLVELREACSGARPAQSCGILQGLSDCVCDTRGTTAHPSD | 0.059 ± 0.0088 | 0.111 ± 0.035 | 1.13 ± 0.15 |
| MNIQIGELAKRTACPVVTIRFYEQEGLLPPPGRSRGNFRLYGEEHVERLQFIRHCRSLDMPLSDVRTLLSYRKRPDQDCGEVNMLLDEHIRQVESRIGALLELSHHLVELREACSGARPAQSCGILQGLSDCVCDTRGTTAHPSD | 0.0612 ± 0.0021 | 0.092 ± 0.02 | 1 ± 0.052 |
| MNIQIGELAKRTACPVVTIRFYEQEGLLPPPGRSRGNFRLYGEEHVERLQFIRHCRSLDMPLSDVRTLLSYRKRPDQDCGEVNMLLDEHIRQVESRIGALLELVHHLVELREACSGARPAQSCGILQGLSDCVCDTRGTTAHPSD | 0.0652 ± 0.0088 | 0.173 ± 0.039 | 1.35 ± 0.19 |
| MNIQIGELAKRTACPVVTIRFYEQEGLLPPPGRSRGNFRLYGEEHVERLQFIRHCRSLDMPLSDVRTLLSYRKRPDQDCGEVNMLLDEHIRQVESRIGALLELIHHLVELREACSGARPAQSCGILQGLSDCVCDTRGTTAHPSD | 0.0616 ± 0.0057 | 0.165 ± 0.044 | 1.22 ± 0.053 |
| MNIQIGELAKRTACPVVTIRFYEQEGLLPPPGRSRGNFRLYGEEHVERLQFIRHCRSLDMPLSDVRTLLSYRKRPDQDCGEVNMLLDEHIRQVESRIGALLELLHHLVELREACSGARPAQSCGILQGLSDCVCDTRGTTAHPSD | 0.0592 ± 0.0049 | 0.135 ± 0.03 | 1.11 ± 0.054 |
| MNIQIGELAKRTACPVVTIRFYEQEGLLPPPGRSRGNFRLYGEEHVERLQFIRHCRSLDMPLSDVRTLLSYRKRPDQDCGEVNMLLDEHIRQVESRIGALLELRHHLVELREACSGARPAQSCGILQGLSDCVCDTRGTTAHPSD | 0.0621 ± 0.006 | 0.0958 ± 0.024 | 0.946 ± 0.16 |
| MNIQIGELAKRTACPVVTIRFYEQEGLLPPPGRSRGNFRLYGEEHVERLQFIRHCRSLDMPLSDVRTLLSYRKRPDQDCGEVNMLLDEHIRQVESRIGALLELGHHLVELREACSGARPAQSCGILQGLSDCVCDTRGTTAHPSD | 0.0526 ± 0.0075 | 0.0524 ± 0.0057 | 0.22 ± 0.0034 |
| MNIQIGELAKRTACPVVTIRFYEQEGLLPPPGRSRGNFRLYGEEHVERLQFIRHCRSLDMPLSDVRTLLSYRKRPDQDCGEVNMLLDEHIRQVESRIGALLELVHHLVELREACSGARPAQSCGILQMLSDCVCDTRGTTAHPSD | 0.179 ± 0.0031 | 0.808 ± 0.088 | 3.325 ± 0.0054 |
| MNIQIGELAKRTACPVVTIRFYEQEGLLPPPGRSRGNFRLYGEEHVERLQFIRHCRSLDMPLSDVRTLLSYRKRPDQDCGEVNMLLDEHIRQVESRIGALLELVHHLVELREACSGARPAQSCGILQILSDCVCDTRGTTAHPSD | 0.0826 ± 0.006 | 0.287 ± 0.021 | 1.84 ± 0.44 |
